{"source": "paper PMC7583906", "about": "“Functional Recovery of a GCDH Variant Associated to Severe Deflavinylation—Molecular Insights into Potential Beneficial Effects of Riboflavin Supplementation in Glutaric Aciduria-Type I Patients” (International Journal of Molecular Sciences, 2020)", "proteins": {"B1": {"name": "glutaryl-coenzyme A (CoA) dehydrogenase, wild-type (GCDH-WT) (enzyme, human)", "chain": "EFDWQDPLVLEEQLTTDEILIRDTFRTYCQERLMPRILLANRNEVFHREIISEMGELGVLGPTIKGYGCAGVSSVAYGLLARELERVDSGYRSAMSVQSSLVMHPIYAYGSEEQRQKYLPQLAKGELLGCFGLTEPNSGSDPSSMETRAHYNSSNKSYTLNGTKTWITNSPMADLFVVWARCEDGCIRGFLLEKGMRGLSAPRIQGKFSLRASATGMIIMDGVEVPEENVLPGASSLGGPFGCLNNARYGIAWGVLGASEFCLHTARQYALDRMQFGVPLARNQLIQKKLADMLTEITLGLHACLQLGRLKDQDKAAPEMVSLLKRNNCGKALDIARQARDMLGGNGISDEYHVIRHAMNLEAVNTYEGTHDIHALILGRAITGIQAFTASK", "notes": "human glutaryl-CoA dehydrogenase (GCDH), recombinant; source: E. coli BL21 (DE3), soluble extract incubated overnight with excess FAD, purified (HisTrap HP)"}, "B2": {"name": "GCDH-p.Val400Met clinical variant (enzyme, human)", "chain": "B1 chain with V354M", "notes": "human glutaryl-CoA dehydrogenase (GCDH), disease variant p.Val400Met of glutaric aciduria type I, recombinant; The assays tell the states apart; also called holo GCDH-p.Val400Met; apo GCDH-p.Val400Met; source: E. coli BL21 (DE3), purified (HisTrap HP); holo form from soluble extract incubated overnight with excess FAD, apo form without the FAD incubation"}}, "target": "the molecule itself", "experiment": "SEC; Superdex 200 10/300 GL, 10 mM HEPES pH 7.8, 150 mM NaCl, typically 0.5 mg applied; holoprotein (FAD bound) as purified; Gaussian deconvolution of the profile", "note": "Numbering of substitutions follows the chain as printed. Values joined by “and” are separate entries in the source; they are usually repeats but may differ in a detail not shown here. Identical values can stand only once.", "data": [{"protein": "B1", "values": [{"measurement": "stoichiometry N", "result": 4}]}, {"protein": "B2", "values": [{"measurement": "stoichiometry N", "result": "4 and 2"}]}]}
